This is an account of results in the RNAGym collection of RNA variant scans (doi:10.1073/pnas.2313332121).

To fix the notation:
B1: TPR t1 (parent)
chain: GACCAAUCUGCCCUCAGAGCUCGAGAACAUCUUCGGAUGCAGAGGAGGCAGGCUUCGGUGGCGCGAUAGCGCCAACGUCCUCAACCUCCAAUGCAUCCCACCACAUGAUGAUGCCUGAAGAGCCUUGGUUUUUUG

Variants of B1 are the subject of the data set. Nature of the data set: polymerase ribozyme fitness, log enrichment relative to wild type (log ratio); higher = more active; in vitro selection for triplet polymerase activity. The essentials: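 To select mutant libraries of each subunit of a heterodimeric triplet polymerase ribozyme, built by PCR and transcribed, each was annealed with a biotinylated primer, partner subunit and triplets, then incubated frozen at −7 °C. Extended constructs were gel-excised, captured on streptavidin beads and amplified by RT-PCR, in one round carried out in triplicate. Illumina sequencing of input and output libraries kept genotypes with ≥10 input reads and ≥1 read per output. Fitness is the base-2 logarithm of genotype enrichment relative to wild-type enrichment, from inverse-variance-weighted replicate averages.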
Take C56G: the “polymerase ribozyme fitness (log ratio)” value is -0.465. The value for C56U was 0.0734; that for C56G G63A G135C was -2.89. Regarding G60A C88U G122A, the “polymerase ribozyme fitness (log ratio)” value is -2.19. Consider G60A G93A A121U, for which the “polymerase ribozyme fitness (log ratio)” value was found to be 1.81.

On to C56G G57C G58A C104A, for which the “polymerase ribozyme fitness (log ratio)” value is -3.33. On to G60A A90C C123U, for which the “polymerase ribozyme fitness (log ratio)” value is 0.00477. Consider U59A U92G C104U, for which the “polymerase ribozyme fitness (log ratio)” value is -2.6.

With G57C C89G, the “polymerase ribozyme fitness (log ratio)” value was -0.917. Consider C56G C98G, for which the “polymerase ribozyme fitness (log ratio)” value was -4.96. In the case of G58A G60C, the “polymerase ribozyme fitness (log ratio)” value is -0.284. On to G58U G60A G77U, for which the “polymerase ribozyme fitness (log ratio)” value stood at 0.541. As to G60A C64A C80U C97A C115A U125A U126G, the “polymerase ribozyme fitness (log ratio)” value is -7.2. Consider G58C U59G A95U G122A, for which the “polymerase ribozyme fitness (log ratio)” value is -0.6. The result for U59A C70G reads -5.27; that for G60A C82U U109G, -5.13. As for C56U G63C G110A, the “polymerase ribozyme fitness (log ratio)” value is -4.56.

For C56A U81A G117A, the “polymerase ribozyme fitness (log ratio)” value was -1.94. The result for C56U G93A G110C reads -5.11; that for U59A U81C U87A, -1.17; that for G57U A83C G93C, -1.15. C56G U87G A100C: the “polymerase ribozyme fitness (log ratio)” value is -1.94.

On to G60A C89A A105U C114U, for which the “polymerase ribozyme fitness (log ratio)” value was -6.37. For C56U U92A, the “polymerase ribozyme fitness (log ratio)” value is -2.86. In the case of C56U U92G, the “polymerase ribozyme fitness (log ratio)” value is -2.12. With U59A G63U, the “polymerase ribozyme fitness (log ratio)” value is -1.93. The value for G57A C76U A90U was -1.14; that for U59A G93C C114U was -2.6. U59C G63A G69U: the “polymerase ribozyme fitness (log ratio)” value was -5.13. Regarding G58C U109G G117A, the “polymerase ribozyme fitness (log ratio)” value was -5.76.

Take G60A G135C: the “polymerase ribozyme fitness (log ratio)” value was 0.136. Consider U59C G71U C88U U92A, for which the “polymerase ribozyme fitness (log ratio)” value is -5.66. Consider C56G G127A G128A, for which the “polymerase ribozyme fitness (log ratio)” value was -3.93. The value for C56U C82U was -0.0659; that for G57C G71U G113C was -3.12. For the variant C56G G63A C101G G122U, the “polymerase ribozyme fitness (log ratio)” value is -5.14. With U59G A90G C97U A111C, the “polymerase ribozyme fitness (log ratio)” value came to 0.601. Regarding G58A C101U G120U, the “polymerase ribozyme fitness (log ratio)” value was -0.534. C56G C115U G135C: the “polymerase ribozyme fitness (log ratio)” value is -1.67. Take G57U C62G U112A: the “polymerase ribozyme fitness (log ratio)” value is -2.56.

Take C56G C101A: the “polymerase ribozyme fitness (log ratio)” value was -1.08. The result for G57A C76A reads -0.895.

Turning to U59A C62G, the “polymerase ribozyme fitness (log ratio)” value was -5.21. The value for U59G G61U A118U was -0.0772. In the case of U59C A83U C94A C115U, the “polymerase ribozyme fitness (log ratio)” value is -4.3. In the case of G58C C97U, the “polymerase ribozyme fitness (log ratio)” value was -0.321.

For G57U G77U G113A G127C, the “polymerase ribozyme fitness (log ratio)” value was -2.59. Turning to C56U C115U U126A, the “polymerase ribozyme fitness (log ratio)” value is -2.48. As for C56U U130G, the “polymerase ribozyme fitness (log ratio)” value is -1.27. C56G C114U: the “polymerase ribozyme fitness (log ratio)” value is -2.55.

As for C56U C82A G120A G128A, the “polymerase ribozyme fitness (log ratio)” value is -0.705.

In the case of G58C U67C A100U G120C, the “polymerase ribozyme fitness (log ratio)” value was -6.28. G58A C72G C82A: the “polymerase ribozyme fitness (log ratio)” value is -0.468. As to C56G U81A U125A, the “polymerase ribozyme fitness (log ratio)” value was -1.81.

Take G57C C97U G113C: the “polymerase ribozyme fitness (log ratio)” value is -3.16.

For the variant G58C G117A, the “polymerase ribozyme fitness (log ratio)” value is -0.561. Take G58A A83U U106A: the “polymerase ribozyme fitness (log ratio)” value was -1.14. C56G A66U A74C G122A: the “polymerase ribozyme fitness (log ratio)” value was -6.51. Take G58A C101G: the “polymerase ribozyme fitness (log ratio)” value is -1.94. Regarding U59C G71C, the “polymerase ribozyme fitness (log ratio)” value is -3.63. For G60A C79U, the “polymerase ribozyme fitness (log ratio)” value came to 0.344.

G60A C64A U112C: the “polymerase ribozyme fitness (log ratio)” value was -6.76. On to C56G U96G, for which the “polymerase ribozyme fitness (log ratio)” value was -1.51.

On to U59G U109G G120U, for which the “polymerase ribozyme fitness (log ratio)” value was -4.53. As for G57U C72U C102A, the “polymerase ribozyme fitness (log ratio)” value was -2.25.

Regarding C56U G63A, the “polymerase ribozyme fitness (log ratio)” value was -4.43. Turning to U59C U106G, the “polymerase ribozyme fitness (log ratio)” value was -1.74. The value for C56U A90G was 0.117.

Take G60A C86U: the “polymerase ribozyme fitness (log ratio)” value is -0.149.

For the variant G57A G69U C86A C101G, the “polymerase ribozyme fitness (log ratio)” value was -2.75. Turning to U59A C64A A118U, the “polymerase ribozyme fitness (log ratio)” value is -6.49. For the variant U59G G60A C85A, the “polymerase ribozyme fitness (log ratio)” value is -2.54. Consider U59C A118C, for which the “polymerase ribozyme fitness (log ratio)” value is -2.95. The result for C56U C98A G120U reads -4.12; that for G57U G63C A95C U112A G117A, -4.01; that for U59A C94A, -0.84. Consider G60A A91C, for which the “polymerase ribozyme fitness (log ratio)” value was -1.35. Consider U59G A74G, for which the “polymerase ribozyme fitness (log ratio)” value was -0.396.

For U59C U112C, the “polymerase ribozyme fitness (log ratio)” value amounted to 1.98. U59G U96G A111C U131A U133A: the “polymerase ribozyme fitness (log ratio)” value was -1.54.

Consider G57A U106G A121C, for which the “polymerase ribozyme fitness (log ratio)” value is -0.75.

On to G58C G60C, for which the “polymerase ribozyme fitness (log ratio)” value was -0.636. Take G58C G71A C82G C88G: the “polymerase ribozyme fitness (log ratio)” value was -2.39.
